Here are results for one molecule from publication PMC12406269, “Identification and characterization of nanobodies specific for the human ubiquitin–like ISG15 protein” (The Journal of Biological Chemistry, 2025).

The test has as its target T1, human ISG15 (1-157)-SBP-His (human, UniProt P05161 1-157).
T1 construct: human ISG15, residues 1-157, cloned into pET30b; also called hISG15-SBP-His; human ISG15-SBP; source: E. coli BL21 (DE3), purified (Ni-NTA, SEC); not shown: His, C-terminal, kept
Description: SEC; VHH and ISG15 mixed at the indicated molar ratios (1:2, 1:1 or 1:1:1) at 20 μM in 500 μl TBS, 20 min at room temperature; Superdex 75 10/300, fractions on SDS-PAGE. The note with it: both partners purified. (In gel filtration, larger molecules generally elute earlier.)

T1 sequence (P05161 1-157): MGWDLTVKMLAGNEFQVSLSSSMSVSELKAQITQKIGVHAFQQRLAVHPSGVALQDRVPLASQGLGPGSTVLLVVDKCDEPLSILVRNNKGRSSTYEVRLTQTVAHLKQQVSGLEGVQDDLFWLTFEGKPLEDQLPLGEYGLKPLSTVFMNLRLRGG

B1: VHH_(ISG15-A)-HA-His (VHH)
VHH: QLQLVETGGGLVQAGGSLRLSCAASGRTFAGLSVKWFRQPPGAEREWVAHITSTGSSTHYADSVKGRFTISRDYDRNMVYLQMSSLKPEDTAVYYCHASTLWPEKHQDYWGQGIQVTVSS
notes: VHH domain; also called VHH-A; source: E. coli WK6, periplasm (osmotic shock), purified (Ni-NTA, SEC); not shown: LPETGG sortase motif, C-terminal, kept; HA, C-terminal, kept; His6, C-terminal, kept
For B1, the binding result is on record as “binds”.
